Consider 20 molecules from PMC11912907, “RNA recognition by minimal ProQ from Neisseria meningitidis”.

A value given as a limit tells only on which side of the number the result lay.

Data set [1] concerns the target T1, ProQ (minimal ProQ, FinO domain with short N- and C-terminal extensions) (Neisseria meningitidis) (UniProt Q9JY98).
T1 sequence: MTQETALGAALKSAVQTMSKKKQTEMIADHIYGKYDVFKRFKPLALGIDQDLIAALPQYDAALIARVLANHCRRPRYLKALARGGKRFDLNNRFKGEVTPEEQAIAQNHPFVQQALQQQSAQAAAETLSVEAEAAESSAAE
The data set is described as follows: EMSA. The conditions noted are these: 25 mM Tris pH 7.5, 150 mM NaCl, 5% glycerol, 1 mM MgCl2, 1 nM 32P-RNA, ProQ up to 50 nM, 30 min at room temperature; 6% native gel at 4 C. In general terms: A gel shift assay detects complexes by their altered migration in electrophoresis.

Data set [2] concerns the target T2, ProQ (minimal ProQ, FinO domain with short N- and C-terminal extensions) (Neisseria meningitidis, UniProt Q9JY98 1-141).
T2 sequence: T1 sequence
The data set is described as follows: EMSA; max bound 89%; 25 mM Tris pH 7.5, 150 mM NaCl, 5% glycerol, 1 mM MgCl2, 1 nM 32P-RNA, ProQ up to 50 nM, 30 min at room temperature; 6% native gel at 4 C. The following applies: protein: recombinant, tags: N-terminal His6-TEV, cleaved, one extra N-terminal Ser remains, label: 5'-32P, terminator hairpin.

Data set [3] addresses T2, ProQ (minimal ProQ, FinO domain with …). The data set can be described thus: EMSA; max bound 86%; 25 mM Tris pH 7.5, 150 mM NaCl, 5% glycerol, 1 mM MgCl2, 1 nM 32P-RNA, ProQ up to 50 nM, 30 min at room temperature; 6% native gel at 4 C. The following applies: protein: recombinant; tags: N-terminal His6-TEV, cleaved; one extra N-terminal Ser remains; label: 5'-32P.
Data set [4] has the same target. The data set can be described thus: EMSA; max bound 81%; 25 mM Tris pH 7.5, 150 mM NaCl, 5% glycerol, 1 mM MgCl2, 1 nM 32P-RNA, ProQ up to 50 nM, 30 min at room temperature; 6% native gel at 4 C. The following applies: protein: recombinant; tags: N-terminal His6-TEV, cleaved; one extra N-terminal Ser remains; label: 5'-32P; terminator hairpin, GAAA loop.
The target is the same in data set [5]. The data set can be described thus: EMSA; max bound 58%; 25 mM Tris pH 7.5, 150 mM NaCl, 5% glycerol, 1 mM MgCl2, 1 nM 32P-RNA, ProQ up to 50 nM, 30 min at room temperature; 6% native gel at 4 C. The conditions noted are these: protein: recombinant; tags: N-terminal His6-TEV, cleaved; one extra N-terminal Ser remains; label: 5'-32P; terminator hairpin, 4-U tail.

For data set [6] the target is unchanged. The data set can be described thus: EMSA; max bound 79%; 25 mM Tris pH 7.5, 150 mM NaCl, 5% glycerol, 1 mM MgCl2, 1 nM 32P-RNA, ProQ up to 50 nM, 30 min at room temperature; 6% native gel at 4 C. The conditions noted are these: protein: recombinant; tags: N-terminal His6-TEV, cleaved; one extra N-terminal Ser remains; label: 5'-32P; terminator hairpin, 6-U tail.

The target is the same in data set [7]. The data set is described as follows: EMSA; max bound 53%; Hill fit; 25 mM Tris pH 7.5, 150 mM NaCl, 5% glycerol, 1 mM MgCl2, 1 nM 32P-RNA, ProQ up to 50 nM, 30 min at room temperature; 6% native gel at 4 C. The conditions noted are these: protein: recombinant; tags: N-terminal His6-TEV, cleaved; one extra N-terminal Ser remains; label: 5'-32P; terminator hairpin, GAAA loop.

The target is the same in data set [8]. The data set is described as follows: EMSA; max bound 80%; 25 mM Tris pH 7.5, 150 mM NaCl, 5% glycerol, 1 mM MgCl2, 1 nM 32P-RNA, ProQ up to 50 nM, 30 min at room temperature; 6% native gel at 4 C. The conditions noted are these: protein: recombinant; tags: N-terminal His6-TEV, cleaved; one extra N-terminal Ser remains; label: 5'-32P; hairpin, GAAA loop.
For data set [9] the target is unchanged. The data set is described as follows: EMSA; max bound 53%; 25 mM Tris pH 7.5, 150 mM NaCl, 5% glycerol, 1 mM MgCl2, 1 nM 32P-RNA, ProQ up to 50 nM, 30 min at room temperature; 6% native gel at 4 C. The conditions noted are these: protein: recombinant; tags: N-terminal His6-TEV, cleaved; one extra N-terminal Ser remains; label: 5'-32P; terminator hairpin, 4-U tail.

The target is the same in data set [10]. The data set is described as follows: EMSA; max bound 90%; 25 mM Tris pH 7.5, 150 mM NaCl, 5% glycerol, 1 mM MgCl2, 1 nM 32P-RNA, ProQ up to 50 nM, 30 min at room temperature; 6% native gel at 4 C. The conditions noted are these: protein: recombinant; tags: N-terminal His6-TEV, cleaved; one extra N-terminal Ser remains; label: 5'-32P; terminator hairpin, 5-U tail.

Data set [11] has the same target. The data set is described as follows: EMSA; undetected up to 50 nM ProQ; 25 mM Tris pH 7.5, 150 mM NaCl, 5% glycerol, 1 mM MgCl2, 1 nM 32P-RNA, ProQ up to 50 nM, 30 min at room temperature; 6% native gel at 4 C. The following applies: protein: recombinant; tags: N-terminal His6-TEV, cleaved; one extra N-terminal Ser remains; label: 5'-32P; terminator hairpin, no tail.

Data set [12] shares this target. The data set is described as follows: EMSA; max bound 88%; 25 mM Tris pH 7.5, 150 mM NaCl, 5% glycerol, 1 mM MgCl2, 1 nM 32P-RNA, ProQ up to 50 nM, 30 min at room temperature; 6% native gel at 4 C. The following applies: protein: recombinant, tags: N-terminal His6-TEV, cleaved, one extra N-terminal Ser remains, label: 5'-32P, terminator hairpin.
Data set [13] has the same target. The data set can be described thus: EMSA; max bound 66%; estimated, not accurately fit; 25 mM Tris pH 7.5, 150 mM NaCl, 5% glycerol, 1 mM MgCl2, 1 nM 32P-RNA, ProQ up to 50 nM, 30 min at room temperature; 6% native gel at 4 C. The following applies: protein: recombinant; tags: N-terminal His6-TEV, cleaved; one extra N-terminal Ser remains; label: 5'-32P; terminator hairpin, 7 nt 3' tail.

Data set [14] has the same target. The data set can be described thus: EMSA; max bound 85%; 25 mM Tris pH 7.5, 150 mM NaCl, 5% glycerol, 1 mM MgCl2, 1 nM 32P-RNA, ProQ up to 50 nM, 30 min at room temperature; 6% native gel at 4 C. The conditions noted are these: protein: recombinant; tags: N-terminal His6-TEV, cleaved; one extra N-terminal Ser remains; label: 5'-32P; terminator hairpin, 5-U tail.
For data set [15] the target is unchanged. The data set is described as follows: EMSA; max bound 64%; 25 mM Tris pH 7.5, 150 mM NaCl, 5% glycerol, 1 mM MgCl2, 1 nM 32P-RNA, ProQ up to 50 nM, 30 min at room temperature; 6% native gel at 4 C. The conditions noted are these: protein: recombinant; tags: N-terminal His6-TEV, cleaved; one extra N-terminal Ser remains; label: 5'-32P; hairpin, GAAA loop.
For data set [16] the target is unchanged. The data set is described as follows: EMSA; max bound 91%; 25 mM Tris pH 7.5, 150 mM NaCl, 5% glycerol, 1 mM MgCl2, 1 nM 32P-RNA, ProQ up to 50 nM, 30 min at room temperature; 6% native gel at 4 C. The conditions noted are these: protein: recombinant; tags: N-terminal His6-TEV, cleaved; one extra N-terminal Ser remains; label: 5'-32P; hairpin, GAAA loop.

For pnp-5', the Kd in [1] turned out to be 7.9 nM.

Take carA-5': in data set [1], the dissociation constant Kd came to 1.3 nM.

For the molecule iga-3', the Kd in data set [1] was found to be 0.3 nM.

Consider GGGAUUUCAGUUUGAAAGCAAAGCCUCCGACUGUUCGGAGGCUUUUUUAU (structured_RNA) [rpmG-U6AU], for which, in data set [2] (8 nt 3' tail), the dissociation constant (Kd) turned out to be 0.2 ± 0.23 nM.

B1: intergenic (structured_RNA)
RNA: GGUAAUGCCGAAAGGGGUUUGACGAUGCCGGCGUGCGCUGUCAAACCCUUUUUCU
In the case of B1, in data set [3], the Kd stood at 1.4 ± 1 nM.

As for GGGAUUUCAGUUUGAAAGCAAAGCCUCCGAGAAAUCGGAGGCUUUUUU (structured_RNA) [rpmG-loop], the Kd in data set [4] is 0.5 ± 0.34 nM.

Take GGGAUUUCAGUUUGAAAGCAAAGCCUCCGACUGUUCGGAGGCUUUUUU (structured_RNA) [rpmG-3']: the Kd in data set [2] (6-U 3' tail, 3 U paired with upstream A) turned out to be 1 ± 0.52 nM.

Regarding GGGAUUUCAGUUUGAAAGCAAAGCCUCCGACUGUUCGGAGGCUUUU (structured_RNA) [rpmG-U4], in [5], the Kd worked out at 2.6 ± 3.5 nM.

B2: AniS-U6 (structured_RNA)
RNA: GGUUUCCUCUUGAUGUGUGUGUUUGGGUGUGGCUGCCGCCACCCCUUUUUU
For the molecule B2, the Kd in data set [6] was 0.7 ± 0.62 nM.

B3: AniS-loop (structured_RNA)
RNA: GGUUUCCUCUUGAUGUGUGUGUUUGGGUGUGGCGAAAGCCACCCCUUUUUUUU
Take B3: the Kd in data set [7] was determined as 0.39 ± 0.18 nM.

Regarding GGGAUUUCAGUUUGAAAGCAAAGCCUGAAAAGGCUUUUUU (structured_RNA) [rpmG-loop-40], the Kd in data set [8] worked out at 1.2 ± 1.5 nM.

In the case of GGUUUCCUCUUGAUGUGUGUGUUUGGGUGUGGCUGCCGCCACCCCUUUU (structured_RNA) [AniS-U4], the Kd in data set [9] is 0.9 ± 0.58 nM.

Turning to GGUUUCCUCUUGAUGUGUGUGUUUGGGUGUGGCUGCCGCCACCCCUUUUU (structured_RNA) [AniS-U5], the Kd in data set [10] worked out at 6.5 ± 1.3 nM.

With GGUUUCCUCUUGAUGUGUGUGUUUGGGUGUGGCUGCCGCCACCCC (structured_RNA) [AniS-noU], the binding result in data set [11] is recorded as “no binding”.

B4: AniS-U7 (structured_RNA)
RNA: GGUUUCCUCUUGAUGUGUGUGUUUGGGUGUGGCUGCCGCCACCCCUUUUUUU
For B4, in [12] (7-U tail), the Kd came to 0.82 ± 0.21 nM.

With GGGAUUUCAGUUUGAAAGCAAAGCCUCCGACUGUUCGGAGGCUUUUUUA (structured_RNA) [rpmG-U6A], in data set [13], the Kd was under 0.5 nM.

As for GGGAUUUCAGUUUGAAAGCAAAGCCUCCGACUGUUCGGAGGCUUUUU (structured_RNA) [rpmG-U5], the Kd in data set [14] stood at 0.47 ± 0.27 nM.

B5: rpmG-U6AU2 (structured_RNA)
RNA: GGGAUUUCAGUUUGAAAGCAAAGCCUCCGACUGUUCGGAGGCUUUUUUAUU
On to B5, for which, in data set [12] (9 nt 3' tail), the Kd worked out at 0.22 ± 0.26 nM.

Regarding GGGAUUUCAGUUUGAAAGCAAAGCGAAAGCUUUUUU (structured_RNA) [rpmG-loop-36], in data set [15], the Kd was 0.13 ± 0.14 nM.

Turning to GGGAUUUCAGUUUGAAAGCAAAGCCUCCGAAAGGAGGCUUUUUU (structured_RNA) [rpmG-loop-44], the Kd in data set [16] was 4 ± 2 nM.

The Kd is the equilibrium constant for the complex coming apart.
